We go through eight sequences from the Immune Epitope Database (IEDB).

The target of one test is HLA-B*07:02. Put plainly: IEDB peptide-MHC binding, purified MHC/direct/fluorescence; filed as Kd, often an IC50 or EC50 that approximates it; ≥ and ≤ were set here for values at or beyond the usual limits of such assays. The note with it: source organism: Burkholderia mallei.
For another test, the target named is HLA-A*01:01. The test is described as above. The note with it: source organism: Burkholderia mallei.
For the next test, the target named is HLA-B*27:05. The description is as above. The note with it: source organism: Burkholderia mallei.
Test [1] deals with HLA-A*02:01. The test is described as above.
The target of a further test is HLA-B*15:01. The test is described as above.
The target of a further test is HLA-A*11:01. The description is as above. The following applies: source organism: Burkholderia mallei.
The target of another test is HLA-A*26:01. The description is as above.
The next test addresses HLA-B*35:01. Described as above. The following applies: source organism: Burkholderia mallei.
For a further test, the target named is HLA-B*40:01. The test is described as above. The note with it: source organism: Burkholderia mallei.
In the next test the target is HLA-C*08:02. The description is as above.
The target of another test is HLA-C*05:01. The description is as above.
For another test, the target named is HLA-B*08:01. The test is described as above. The note with it: source organism: Burkholderia mallei.
Another test concerns the target HLA-A*69:01. Described as above.
Another test concerns the target HLA-A*24:03. The description is as above.
A further test addresses HLA-A*31:01. Described as above. The following applies: source organism: Burkholderia mallei.
The target in another test is HLA-B*58:01. Described as above. The note with it: source organism: Burkholderia mallei.
The target in a further test is HLA-A*03:01. The test is described as above.
The target of the next test is HLA-C*12:03. Described as above. The note with it: source organism: Vaccinia virus WR.
For test [2], the target named is HLA-B*51:01. Put plainly: IEDB peptide-MHC binding, purified MHC/competitive/fluorescence; filed as Kd, often an IC50 or EC50 that approximates it; ≥ and ≤ were set here for values at or beyond the usual limits of such assays. The note with it: source organism: Vaccinia virus WR.
A further test has as its target HLA-A*02:16. Put plainly: IEDB peptide-MHC binding, purified MHC/direct/fluorescence; filed as Kd, often an IC50 or EC50 that approximates it; ≥ and ≤ were set here for values at or beyond the usual limits of such assays.
Another test deals with HLA-B*57:01. The test is described as above.
The target of a further test is HLA-B*46:01. The test is described as above.
In a further test the target is HLA-A*02:12. Described as above.
Another test concerns the target HLA-A*02:03. The description is as above.
For a further test, the target named is HLA-B*27:03. The description is as above.
The next test has as its target HLA-B*15:17. The test is described as above.
In the next test the target is HLA-A*02:11. The test is described as above.
Test [3] has as its target HLA-B*51:01. Described as above.
A further test addresses HLA-B*18:01. The test is described as above.
The next test addresses HLA-A*29:02. The test is described as above.
Another test addresses HLA-A*02:19. The test is described as above.
The target in the next test is HLA-B*39:01. The test is described as above.
The target of another test is HLA-C*15:02. Described as above. The following applies: source organism: Campylobacter jejuni subsp. jejuni 81-176.
The target in the next test is HLA-C*03:03. Described as above. The following applies: source organism: Campylobacter jejuni subsp. jejuni 81-176.
In a further test the target is HLA-A*68:02. The description is as above. The note with it: source organism: Toxoplasma gondii.
For the next test, the target named is HLA-A*23:01. The description is as above. The note with it: source organism: Toxoplasma gondii.
Test [4] deals with HLA-A*02:01. In words: IEDB peptide-MHC binding, cellular MHC/competitive/fluorescence; ≥ and ≤ were set here for values at or beyond the usual limits of such assays. The following applies: source organism: Homo sapiens.
The next test concerns the target HLA-C*07:02. In words: IEDB peptide-MHC binding, purified MHC/direct/fluorescence; filed as Kd, often an IC50 or EC50 that approximates it; ≥ and ≤ were set here for values at or beyond the usual limits of such assays. The note with it: source organism: Entamoeba histolytica HM-1:IMSS.
The next test has as its target HLA-C*06:02. The test is described as above. The note with it: source organism: Entamoeba histolytica HM-1:IMSS.
[5] abbreviates: source organism: Burkholderia mallei.
Setting [6] is: source organism: Burkholderia pseudomallei 91.
Setting [7] is: source organism: Camelpox virus M-96.
Setting [8] is: source organism: Toxoplasma gondii RH.
[9] abbreviates: source organism: Campylobacter jejuni subsp. jejuni 81116.
[10] abbreviates: source organism: Toxoplasma gondii.
The mark [11] stands for this setting: source organism: Entamoeba histolytica HM-1:IMSS.

Regarding ISDSAQNMM, the equilibrium dissociation constant (Kd) with HLA-B*07:02 was not below 20 µM; in the test with HLA-A*01:01, 1.04 µM; with HLA-B*27:05, not below 20 µM; with HLA-A*02:01 [1] (setting [5]), not below 20 µM; with HLA-B*15:01 (setting [5]), not below 20 µM; with HLA-A*11:01, not below 20 µM. The dissociation constant (Kd) in the test with HLA-A*26:01 (setting [5]) was not below 20 µM; with HLA-B*35:01, 0.0402 µM; with HLA-B*40:01, not below 20 µM; with HLA-C*08:02 (setting [6]) it was not above 0.001 µM; with HLA-C*05:01 (setting [6]), 0.003 µM; with HLA-B*08:01, not below 20 µM. In addition, the Kd with HLA-A*69:01 (setting [5]) is not below 20 µM; with HLA-A*24:03 (setting [5]), not below 20 µM; with HLA-A*31:01, not below 20 µM; in the test with HLA-B*58:01, 0.151 µM; with HLA-A*03:01 (setting [5]) it was not below 20 µM.
In the case of YLYETYHLI, the equilibrium dissociation constant (Kd) with HLA-A*02:01 [1] (setting [7]) was 0.002 µM; with HLA-C*12:03, 0.155 µM; with HLA-C*08:02 (source organism: Vaccinia virus WR), not below 20 µM; with HLA-A*69:01 (setting [7]), 0.0038 µM; with HLA-B*51:01 [2] it was 4 µM.
On to THADAHTQL, for which the dissociation constant (Kd) in the test with HLA-A*02:16 (setting [8]), with HLA-B*57:01 (setting [8]), in the test with HLA-B*46:01 (setting [8]), in the test with HLA-A*02:01 [1] (setting [8]), with HLA-A*02:12 (setting [8]) and with HLA-A*02:03 (setting [8]) was not below 20 µM throughout. Also, the Kd in the test with HLA-B*27:03 (setting [8]), with HLA-B*15:01 (setting [8]), with HLA-B*15:17 (setting [8]), with HLA-A*02:11 (setting [8]), in the test with HLA-A*26:01 (setting [8]) and with HLA-B*51:01 [3] (setting [8]) was not below 20 µM throughout. The Kd in the test with HLA-B*18:01 (setting [8]), with HLA-A*29:02 (setting [8]), in the test with HLA-A*69:01 (setting [8]), in the test with HLA-A*02:19 (setting [8]), in the test with HLA-A*24:03 (setting [8]) and in the test with HLA-A*03:01 (setting [8]) was not below 20 µM throughout.
YTNYPFLFF: the dissociation constant (Kd) with HLA-A*02:16 (setting [9]), with HLA-B*39:01 (setting [9]), in the test with HLA-A*02:01 [1] (setting [9]), with HLA-A*02:12 (setting [9]), in the test with HLA-A*02:03 (setting [9]) and with HLA-B*27:03 (setting [9]) was not below 20 µM in each case. Moreover, the Kd in the test with HLA-C*15:02 was 0.025 µM; with HLA-B*51:01 [3] (setting [9]), not below 20 µM; with HLA-C*03:03, 0.159 µM; with HLA-A*02:19 (setting [9]), not below 20 µM; in the test with HLA-A*03:01 (setting [9]) it was not below 20 µM.
Turning to LPPVVPPLI, the dissociation constant (Kd) in the test with HLA-A*02:16 (setting [10]), with HLA-B*39:01 (setting [10]), in the test with HLA-B*57:01 (setting [10]), with HLA-B*46:01 (setting [10]), in the test with HLA-A*02:01 [1] (setting [10]) and in the test with HLA-A*02:12 (setting [10]) was not below 20 µM throughout. The Kd with HLA-A*02:03 (setting [10]), with HLA-B*27:03 (setting [10]), in the test with HLA-B*15:01 (setting [10]), with HLA-B*15:17 (setting [10]), in the test with HLA-A*02:11 (setting [10]) and in the test with HLA-A*68:02 was not below 20 µM throughout. Besides, the Kd with HLA-A*26:01 (setting [10]) is not below 20 µM; with HLA-B*51:01 [3] (setting [10]) it was 0.201 µM; in the test with HLA-A*23:01, not below 20 µM; with HLA-B*18:01 (setting [10]) it was not below 20 µM; with HLA-A*29:02 (setting [10]), not below 20 µM; with HLA-A*69:01 (setting [10]) it was not below 20 µM. In addition, the dissociation constant (Kd) with HLA-A*02:19 (setting [10]), with HLA-A*24:03 (setting [10]) and with HLA-A*03:01 (setting [10]) was not below 20 µM each time.
In the case of KMDASLGNLFA, the IC50 with HLA-A*02:01 [4] stood at 1.11 µM.
As for FAMRLLQAV, the Kd is 2.89 µM with HLA-C*07:02, 0.844 µM with HLA-C*06:02, 0.017 µM with HLA-C*08:02 (setting [11]) and 3.17 µM in the test with HLA-C*05:01 (setting [11]).
Turning to LLLDVPTAAV, the IC50 with HLA-A*02:01 [4] is 0.53 µM.
